Experimental data as given in patent US20040219514A1, “Caml-binding peptides” (priority 2000, published 2004).

How the values were obtained:
CAML = target: T1, CAML (Homo sapiens, UniProt P49069); settings: published reports on human TACI fragments; cited from earlier work
T1 sequence (P49069 1-296): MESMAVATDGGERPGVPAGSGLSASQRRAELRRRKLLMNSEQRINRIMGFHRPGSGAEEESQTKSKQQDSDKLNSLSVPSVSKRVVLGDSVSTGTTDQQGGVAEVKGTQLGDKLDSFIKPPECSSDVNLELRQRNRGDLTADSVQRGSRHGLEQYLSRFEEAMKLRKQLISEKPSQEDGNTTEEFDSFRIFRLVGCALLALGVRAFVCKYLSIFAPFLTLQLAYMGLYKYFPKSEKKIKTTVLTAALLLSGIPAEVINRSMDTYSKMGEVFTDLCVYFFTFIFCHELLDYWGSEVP

U937 cells [1] = test: Annexin V-FACS apoptosis assay; format: cell-based, human
Procedure: (§1) Generation of stable U937 cell lines expressing E3/6.7K U937 human histiocytic lymphoma cells obtained from ATCC (CRL 1593) were maintained in RPMI 1640, 10% FCS, 2 mM L-glutamine, 10 mM HEPES, 100 U/ml penicillin and 100 μg/ml streptomycin in an atmosphere of 5% CO2 and 100% humidity. Cells were transfected with the appropriate construct by using the DMRIE-C cationic lipid reagent available from Life Technologies using the manufacturer's protocol. Transfected cells were maintained in medium containing geneticin G-418 sulphate at a final concentration of 800 μg/ml. Media and supplements were purchased from Life Technologies. Subclones of the transfected cell lines were generated by serial dilution and examined for expression of E3/6.7K by Northern Blotting. The expression of E3/6.7K mRNA was very similar in all the clones examined. All the G-418 resistant cells that survived the selection procedure were pooled and used for the in vitro assays, in order to avoid clonal variations known to arise in U937 cells.
Annexin V-FACS apoptosis assay. Annexin V-FITC (PharMingen) was used to determine the binding of Annexin V to externalized phosphatidyl serine. […] One sample of cells was not stained and used to set up the baseline fluorescence. The cells were examined with a fluorescence-activated cell sorter SACS) on a Beckton Dickson FACS Analyzer.

calcium ions from the ER = test: Efflux of calcium ions from the ER; format: cell-based; settings: in the presence of E3/6.7K
full length CAML [2] = target: T2, full length CAML (Mus musculus, UniProt P49070); test: Yeast two-hybrid interaction; format: binding; settings: GAL4 bait/prey
T2 construct: expressed in transfected cells; host or cells: Saccharomyces cerevisiae AH109
T2 sequence (P49070 1-294): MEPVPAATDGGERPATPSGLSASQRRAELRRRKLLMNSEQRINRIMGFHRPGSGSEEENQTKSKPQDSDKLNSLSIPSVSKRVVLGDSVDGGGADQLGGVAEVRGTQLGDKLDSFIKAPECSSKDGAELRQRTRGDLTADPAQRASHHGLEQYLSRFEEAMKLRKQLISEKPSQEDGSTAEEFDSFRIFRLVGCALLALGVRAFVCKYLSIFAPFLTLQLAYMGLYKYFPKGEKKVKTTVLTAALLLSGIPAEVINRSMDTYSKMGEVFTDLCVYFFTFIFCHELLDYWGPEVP
Description: (§2) pBD-6.7, a bait vector containing E3/6.7, was constructed by subdloning full length E3/6.7K cDNA in frame into the C terminus of the GAL4 DNA binding domain of vector pGBKT7 (CLONTECH). pAD-CAML was constructed by subcloning full length CAML in frame into the C terminus of the GAL4 activation domain of the prey vector pGADT7 (CLONTECH). pAD-CAML(201) was constructed by subdloning amino acids 1 to 201 of CAML in frame into the C terminus of the GAl4 activation domain of the prey vector pGADT7. The fidelity of the constructs was confirmed by sequencing.
(§3) Yeast Transformation and Selection. p]3D-6.7 and pAD-CAML or pAD-CAML(201) were transformed together into Saccharomyces cerevisiae AH109 using the Lithium Acetate Yeast Transformation procedure as described by Gietz, D., et al. (1992) Nucleic Acids Res., 20:1425. Control cotransformation of p3D-53 /pAD-T and pBD-Lam/pAD-T were also done. pBD-53/pAD-T encode fusions between the GAL4 DNA-BD and AD and murine p53 and SV40 large T-antigen, respectively. p53 and large T-antigen interact in a yeast two-hybrid assay. pBD-Lam encodes a fusion of the DNA-BD with human lamin C and provides a negative control for an interaction with pAD-T. For yeast selection, pBD containing the […] gene was selected on synthetic drop out media lacking tryptophan (SD-T). pAD contains the LEU2 gene and was selected for on SD-L (leucine).
(§4) CAML-Binding with SED. The yeast two hybrid system takes advantage of the GAL4 transcriptional activator which consists of two separable and functionally essential domains: a DNA binding domain and a domain that activates transcription. A bait gene (fragments of the E3/6.7K gene) was expressed as a fusion to the GAL4 DNA-binding domain (ED), while a prey gene (CAML) was expressed as a fusion to the GAL4 activation domain (AD). When bait and prey fusion proteins interact, the BD and AD are brought into proximity, thus activating transcription of reporter genes.

[3] = target: T3, amino acids 1 to 201 of CAML (Homo sapiens, UniProt P49069); test: Yeast two-hybrid interaction; format: binding
T3 construct: subdloning amino acids 1 to 201 of CAML in frame; expressed in transfected cells; host or cells: Saccharomyces cerevisiae AH109
T3 sequence (P49069 1-201): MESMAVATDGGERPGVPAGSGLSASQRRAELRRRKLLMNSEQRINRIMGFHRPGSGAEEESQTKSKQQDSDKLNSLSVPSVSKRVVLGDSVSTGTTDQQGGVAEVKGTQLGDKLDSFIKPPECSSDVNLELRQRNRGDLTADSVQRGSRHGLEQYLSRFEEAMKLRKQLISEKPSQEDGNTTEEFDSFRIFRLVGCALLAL
Description: as §2, §3, §4

full length CAML [4] = target: T4, full length CAML (Homo sapiens, UniProt P49069); test: Yeast two-hybrid interaction; format: binding
T4 construct: expressed in transfected cells; host or cells: Saccharomyces cerevisiae AH109
T4 sequence (P49069 1-296): T1 sequence (P49069 1-296)
Description: as §2, §3, §4

U937 cells [5] = test: Arachidonic acid release assay; format: cell-based, human
Procedure: as §1
Arachidonic acid release assays. […] After 20 hours of treatment the cells were centrifuged and 100 μl of supernatant out of 500 μl total was mixed with 3 ml scintillation fluid and counted. […] The counts per minute of released [3H] arachidonic acid were expressed as a percentage of the average of total incorporated [3H] arachidonic acid.

B1: 1-233 of human TACI: fragment of human TACI, amino acids 1-233 (protein, UniProt O14836 1-233, looked up, fragment)
chain: MSGLGRSRRGGRSRVDQEERFPQGLWTGVAMRSCPEEQYWDPLLGTCMSCKTICNHQSQRTCAAFCRSLSCRKEQGKFYDHLLRDCISCASICGQHPKQCAYFCENKLRSPVNLPPELRRQRSGEVENNSDNSGRYQGLEHRGSEASPALPGLKLSADQVALVYSTLGLCLCAVLCCFLVAVACFLKKRGDPCSCQPRSRPRQSPAKSSQDHAMEAGSPVSTSPEPVETCSFC
CAML-binding (CAML): capable of binding to CAML

B2: amino acids 1-168 of human TACI: fragment of human transmembrane activator and CAML interactor (TACI), amino acids 1-168 (protein, UniProt O14836 1-168, looked up, fragment)
chain: MSGLGRSRRGGRSRVDQEERFPQGLWTGVAMRSCPEEQYWDPLLGTCMSCKTICNHQSQRTCAAFCRSLSCRKEQGKFYDHLLRDCISCASICGQHPKQCAYFCENKLRSPVNLPPELRRQRSGEVENNSDNSGRYQGLEHRGSEASPALPGLKLSADQVALVYSTLG
CAML-binding (CAML): did not occur

B3: amino acids 1-212: fragment of human TACI, amino acids 1-212 (protein, UniProt O14836 1-212, looked up, fragment)
chain: MSGLGRSRRGGRSRVDQEERFPQGLWTGVAMRSCPEEQYWDPLLGTCMSCKTICNHQSQRTCAAFCRSLSCRKEQGKFYDHLLRDCISCASICGQHPKQCAYFCENKLRSPVNLPPELRRQRSGEVENNSDNSGRYQGLEHRGSEASPALPGLKLSADQVALVYSTLGLCLCAVLCCFLVAVACFLKKRGDPCSCQPRSRPRQSPAKSSQDH
CAML-binding (CAML): capable of binding to CAML

B4: E3/6.7K: 6.7K protein encoded by the adenovirus E3 region; integral membrane protein localized to the endoplasmic reticulum; expressed from transfected Ad2 cDNA (protein)
chain: MSNSSNSTSLSNFSGIGVGVILTLVILFILILALLCLRVAACCTHVCTYCQLFKRWGQHPR
modifications: Adenovirus, Ad2 E3/6.7K
notes: 6.7K protein encoded by the adenovirus E3 region; integral membrane protein localized to the endoplasmic reticulum; expressed from transfected Ad2 cDNA
reduction in apoptosis compared to U937neor (U937 cells [1]; U937-E3/6.7K cells, combination of TNF-α and CHX): 65% | reduction in percentage of apoptotic cells compared with U937neor (U937 cells [1]; cells expressing E3/6.7K, stimulation with TNF-α): 55% | efflux of calcium ions from the ER (calcium ions from the ER): reduced | interaction with CAML (full length CAML [2]): interacts | interaction with CAML ([3]; 1-201 residue domain of CAML, GAL4 bait/prey): interacts | growth of yeast on interaction-selective media ([3]; pBD-6.7 and pAD-CAML(201) in S. cerevisiae AH109, SD-LTHX or SD-AHLTX): able to grow on both SD-LTHX or SD-AHLTX | interaction with CAML (full length CAML [4]; full length human CAML, GAL4 bait/prey): interacts | growth of yeast on interaction-selective media (full length CAML [4]; pBD-6.7 and pAD-CAML in S. cerevisiae AH109, SD-LTHX or SD-AHLTX): able to grow on both SD-LTHX or SD-AHLTX | reduction of release of [3H] arachidonic acid compared to U937neor (U937 cells [5]; U937-E3/6.7K cells, TNF-α and cycloheximide (CHX)): 60% | decrease of [3H] arachidonic acid release compared with U937 cells transfected with vector alone (U937 cells [5]; U937 cells transfected with E3/6.7K cDNA, stimulated with TNF-α): 50%
